Laboratory results taken from patent US20170296524A1 (KLINIKUM RECHTS DER ISAR DER TECHNISCHEN UNIVERSITAT MUNCHEN, published 2017).
Each block holds one binder with its values, some of them ahead of it.

B1: MCT1 (monocarboxylate transporter 1), endogenous (other, human, UniProt P53985 1-500, looked up)
chain: MPPAVGGPVGYTPPDGGWGWAVVIGAFISIGFSYAFPKSITVFFKEIEGIFHATTSEVSWISSIMLAVMYGGGPISSILVNKYGSRIVMIVGGCLSGCGLIAASFCNTVQQLYVCIGVIGGLGLAFNLNPALTMIGKYFYKRRPLANGLAMAGSPVFLCTLAPLNQVFFGIFGWRGSFLILGGLLLNCCVAGALMRPIGPKPTKAGKDKSKASLEKAGKSGVKKDLHDANTDLIGRHPKQEKRSVFQTINQFLDLTLFTHRGFLLYLSGNVIMFFGLFAPLVFLSSYGKSQHYSSEKSAFLLSILAFVDMVARPSMGLVANTKPIRPRIQYFFAASVVANGVCHMLAPLSTTYVGFCVYAGFFGFAFGWLSSVLFETLMDLVGPQRFSSAVGLVTIVECCPVLLGPPLLGRLNDMYGDYKYTYWACGVVLIISGIYLFIGMGINYRLLAKEQKANEQKKESKEEETSIDVAGKPNEVTKAAESPDQKDTDGGPKEEESPV
notes: Endogenous protein in HEK 293T or MM1S cell lysates

How the values were obtained:
[1] = biological target: T1, HA-CUL4A (UniProt Q13619 1-759, limits assumed); assay: HA-CUL4A purified from HEK293T cells, incubated with MM1S extracts, immunoblot
T1 construct: Purified from HEK293T cells and incubated with MM1S cell extracts; not shown: HA tag
From the text: Bound protein fractions were subjected to immunoblot analysis using the indicated antibodies.

[2] = biological target: T2, Cereblon (CRBN), human, wild type, without tag (endogenous or expressed from plasmid) (human, UniProt Q96SW2 1-442); assay: co-immunoprecipitation
T2 construct: Endogenous protein in HEK 293T or MM1.S/MM1S lysates, or untagged wild-type CRBN re-expressed in CRBN-/- HEK 293T cells; also called CRBN WT; endogenous CRBN
Experimental: Immunocomplexes were probed with antibodies to the indicated proteins.
(§1) Cell samples were lysed in lysis buffer (NaCl 150mM, Tris-HCl 50 mM, MgCl2 5 mM, EDTA 1 mM, NP-40 0,1%, Glycerol 5% and inhibitors) for whole cell lysates, immunoprecipitations or pulldown experiments. […] Briefly, the cellular lysates were centrifuged 15 min at 14,000 rpm at 4° C. to separate from cellular debris. Protein concentration in the supernatants was measured before Laemmli buffer was added. The lysates were separated by SDS-PAGE and blotted onto PVDF (polyvinylidene difluoride) membranes. After blotting, PVDF membranes were stained with Ponceau solution to evaluate protein loading. After washing and blocking unspecific bindings in 5% milk, the membranes were incubated with primary antibodies. After addition of horseradish peroxidase coupled secondary antibodies, western blot membranes were developed using the ECL (enhanced chemoluminescence) method (SuperSignal West reagents from Thermo Scientific). […] For the experiments using a protein cross linker, DSS (Pierce) was added to the cells to a final concentration of 1 mM for 45 minutes at RT. […] After washing the beads four times in lysis buffer, Laemmli buffer was added and proteins were analyzed by SDS- electrophoresis.

[3] = biological target: T3, FLAG-MCT1 (human, UniProt P53985 1-500); assay: FLAG-MCT1 immunoprecipitation from cycloheximide-treated HEK293T cells, immunoblot (FIG. 13G)
T3 construct: Expressed in HEK293T cells; The tag is written first only because the name prints it so; also called Flag-tagged MCT1; not shown: FLAG tag
T3 sequence (looked up): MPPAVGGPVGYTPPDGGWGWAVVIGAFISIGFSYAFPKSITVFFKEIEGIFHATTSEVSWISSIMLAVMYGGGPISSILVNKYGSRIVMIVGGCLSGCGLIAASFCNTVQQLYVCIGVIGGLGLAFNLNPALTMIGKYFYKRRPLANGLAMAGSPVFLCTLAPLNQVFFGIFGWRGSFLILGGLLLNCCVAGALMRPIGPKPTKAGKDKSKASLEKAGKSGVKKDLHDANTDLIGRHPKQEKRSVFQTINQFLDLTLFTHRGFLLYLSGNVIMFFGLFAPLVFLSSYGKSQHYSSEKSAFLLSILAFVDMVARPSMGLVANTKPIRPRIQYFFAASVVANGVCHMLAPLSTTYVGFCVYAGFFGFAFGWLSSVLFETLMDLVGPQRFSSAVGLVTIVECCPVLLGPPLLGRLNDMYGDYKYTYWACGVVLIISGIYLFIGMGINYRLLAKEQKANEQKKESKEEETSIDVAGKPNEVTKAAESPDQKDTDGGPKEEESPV

[4] = biological target: T4, Strep-Flag tagged CRBN (CRBN-SF) (human, UniProt Q96SW2 1-442); assay: tandem affinity purification (Strep, then Flag) from HEK 293T cells, mass spectrometry
T4 construct: Tag put at the C-terminus from the vector's name (pcDNA-C-SF-TAP); also called CRBN-SF-TAP; CRBN-tandem-Strep-FLAG-tagged; not shown: tandem Strep-FLAG tag of vector pcDNA-C-SF-TAP

[5] = biological target: B1; assay: FLAG-CD147 immunoprecipitation from cycloheximide-treated HEK293T cells, immunoblot (FIG. 13F)
Experimental: Cells were treated with cycloheximide (CHX) for the indicated times before lysis.

[6] = biological target: T2, Cereblon (CRBN), human, wild type, …; assay: heading of FIG. 16: FLAG immunoprecipitation from HEK293T cells (16A) and GST-CRBN pull-down (16B)
[7] = biological target: T3, FLAG-MCT1; assay: Flag-bead immunoprecipitation of Flag-MCT1 from HEK 293T cells with or without co-expressed CRBN, Western blot for CD147
Experimental: After lysis, MCT1 was immunoprecipitated with Flag-beads. Binding to CD147 was analysed by Western Blot.
as §1

T1 sequence (Q13619 whole entry): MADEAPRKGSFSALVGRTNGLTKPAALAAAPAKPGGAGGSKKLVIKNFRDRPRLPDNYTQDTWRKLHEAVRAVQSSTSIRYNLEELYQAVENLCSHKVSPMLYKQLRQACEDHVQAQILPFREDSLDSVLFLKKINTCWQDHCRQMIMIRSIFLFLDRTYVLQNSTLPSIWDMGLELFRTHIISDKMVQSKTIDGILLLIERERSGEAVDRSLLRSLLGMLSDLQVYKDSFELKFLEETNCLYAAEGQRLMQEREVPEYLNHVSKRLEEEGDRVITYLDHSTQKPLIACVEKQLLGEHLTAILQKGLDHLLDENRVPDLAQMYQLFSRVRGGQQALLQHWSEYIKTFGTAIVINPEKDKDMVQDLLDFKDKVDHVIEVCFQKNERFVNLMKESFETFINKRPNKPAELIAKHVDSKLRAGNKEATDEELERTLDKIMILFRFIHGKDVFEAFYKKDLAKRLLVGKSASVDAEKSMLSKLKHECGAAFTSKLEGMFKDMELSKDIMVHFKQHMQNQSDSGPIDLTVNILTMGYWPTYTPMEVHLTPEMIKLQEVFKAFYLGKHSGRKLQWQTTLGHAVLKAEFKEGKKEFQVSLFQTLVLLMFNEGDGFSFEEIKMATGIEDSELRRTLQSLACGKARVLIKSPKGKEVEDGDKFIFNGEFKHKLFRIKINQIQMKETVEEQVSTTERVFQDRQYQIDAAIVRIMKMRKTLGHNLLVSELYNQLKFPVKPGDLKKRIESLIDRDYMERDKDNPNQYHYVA
T2 sequence (Q96SW2 whole entry): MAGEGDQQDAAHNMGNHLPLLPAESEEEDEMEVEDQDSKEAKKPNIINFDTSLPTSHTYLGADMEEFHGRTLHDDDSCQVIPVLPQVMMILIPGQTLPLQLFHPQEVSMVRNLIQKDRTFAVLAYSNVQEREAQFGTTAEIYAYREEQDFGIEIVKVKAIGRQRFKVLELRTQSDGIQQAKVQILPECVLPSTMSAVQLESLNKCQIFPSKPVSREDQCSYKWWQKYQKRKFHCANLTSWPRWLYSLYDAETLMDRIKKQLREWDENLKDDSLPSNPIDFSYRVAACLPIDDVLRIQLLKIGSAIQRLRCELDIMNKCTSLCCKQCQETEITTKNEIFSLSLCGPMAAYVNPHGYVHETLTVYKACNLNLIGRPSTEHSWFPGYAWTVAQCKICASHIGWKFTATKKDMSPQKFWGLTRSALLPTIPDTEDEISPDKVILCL
T4 sequence (Q96SW2 whole entry): as above

Binder: B1
binding result [1]: no binding

binding result [1]: no binding
binding result [2]: binds
binding result [3]: binds
binding result [4]: binds
B2: CD147 (Basigin, EMMPRIN), endogenous (other, human, UniProt P35613-2 22-269, looked up)
chain: AAGTVFTTVEDLGSKILLTCSLNDSATEVTGHRWLKGGVVLKEDALPGQKTEFKVDSDDQWGEYSCVFLPEPMGTANIQLHGPPRVKAVKSSEHINEGETAMLVCKSESVPPVTDWAWYKITDSEDKALMNGSESRFFVSSSQGRSELHIENLNMEADPGQYRCNGTSSKGSDQAIITLRVRSHLAALWPFLGIVAEVLVLVTIIFIYEKRRKPEDVLDDDDAGSAPLKSSGQHQNDKGKNVRQRNSS
modifications: core-glycosylated (CG) and high-glycosylated (HG) forms
notes: as for B1

binding result [5]: binds
binding result [6]: binds
B3: FLAG-CD147 (other, human, UniProt P35613-2 22-269, looked up)
chain: AAGTVFTTVEDLGSKILLTCSLNDSATEVTGHRWLKGGVVLKEDALPGQKTEFKVDSDDQWGEYSCVFLPEPMGTANIQLHGPPRVKAVKSSEHINEGETAMLVCKSESVPPVTDWAWYKITDSEDKALMNGSESRFFVSSSQGRSELHIENLNMEADPGQYRCNGTSSKGSDQAIITLRVRSHLAALWPFLGIVAEVLVLVTIIFIYEKRRKPEDVLDDDDAGSAPLKSSGQHQNDKGKNVRQRNSS
notes: Expressed in HEK293T cells; The tag is written first only because the name prints it so; also called FLAG-tagged CD147; not shown: FLAG tag

binding result [7]: binds
B4: HA-CD147 (other, human, UniProt P35613-2 22-269, looked up)
chain: AAGTVFTTVEDLGSKILLTCSLNDSATEVTGHRWLKGGVVLKEDALPGQKTEFKVDSDDQWGEYSCVFLPEPMGTANIQLHGPPRVKAVKSSEHINEGETAMLVCKSESVPPVTDWAWYKITDSEDKALMNGSESRFFVSSSQGRSELHIENLNMEADPGQYRCNGTSSKGSDQAIITLRVRSHLAALWPFLGIVAEVLVLVTIIFIYEKRRKPEDVLDDDDAGSAPLKSSGQHQNDKGKNVRQRNSS
notes: Expressed in HEK 293T cells; not shown: HA tag
